Molecular target: GCN4 peptide-fused αCD19 Fab (Rodgers et al.)
Assay: ELISA, coated GCN4 peptide-fused αCD19 Fab, detection with anti-human lambda-HRP

EC50	Substance
1 nM	αGCN4-Fab (LC-G202X, HC-K129X, X=pAcF)
1 nM	αGCN4-Fab (LC-S155X, HC-K129X, X=pAcF)
1 nM	αGCN4-Fab (LC-S193X, HC-K129X, X=pAcF)

— patent US20190211111A1
